Data: patent publication US20200079833A1 (AstraZeneca / MedImmune, published 2020)
Starred links: 1 amine or outer side, 2 acyl side, 3 side chain; linkers in the order of their positions; H or OH if unused. Non-standard residues stand in square brackets, D forms with d. Groups on a side chain read outwards from the residue. No end group written: not given here. *: point of attachment. γGlu = O=C(O)[C@H](CCC(=O)[*:2])N[*:1]; Palmitoyl = CCCCCCCCCCCCCCCC(=O)*; αMeF = C[C@](N)(Cc1ccccc1)C(=O)O; αMeK = C[C@](N)(CCCCN)C(=O)O; αMeS = C[C@](N)(CO)C(=O)O; Aib = CC(C)(N)C(=O)O

T1: glucose-dependent insulinotropic peptide (gastric inhibitory polypeptide) receptor (GIPR) (human, UniProt P48546 22-466)
T1 sequence (looked up): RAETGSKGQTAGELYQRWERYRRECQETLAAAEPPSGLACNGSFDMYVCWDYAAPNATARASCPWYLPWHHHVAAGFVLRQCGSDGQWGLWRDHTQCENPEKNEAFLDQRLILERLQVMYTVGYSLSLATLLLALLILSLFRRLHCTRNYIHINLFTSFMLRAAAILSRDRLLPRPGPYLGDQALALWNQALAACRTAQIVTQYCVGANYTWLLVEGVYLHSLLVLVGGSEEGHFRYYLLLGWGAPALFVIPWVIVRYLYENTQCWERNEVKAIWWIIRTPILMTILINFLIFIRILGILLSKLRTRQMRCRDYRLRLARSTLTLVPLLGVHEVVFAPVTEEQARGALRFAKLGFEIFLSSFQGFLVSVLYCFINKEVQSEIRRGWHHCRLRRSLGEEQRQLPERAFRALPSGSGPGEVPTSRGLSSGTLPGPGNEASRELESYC


How the values were obtained:
Test in all cases: cell-based or functional assay
GLP-1 receptor (GLP-1R) = GLP-1 receptor (GLP-1R) (human, UniProt P43220 24-463)
glucagon receptor (GCGR) = glucagon receptor (GCGR) (human, UniProt P47871 26-477)
Chain of glucagon receptor (GCGR) (P47871 26-477): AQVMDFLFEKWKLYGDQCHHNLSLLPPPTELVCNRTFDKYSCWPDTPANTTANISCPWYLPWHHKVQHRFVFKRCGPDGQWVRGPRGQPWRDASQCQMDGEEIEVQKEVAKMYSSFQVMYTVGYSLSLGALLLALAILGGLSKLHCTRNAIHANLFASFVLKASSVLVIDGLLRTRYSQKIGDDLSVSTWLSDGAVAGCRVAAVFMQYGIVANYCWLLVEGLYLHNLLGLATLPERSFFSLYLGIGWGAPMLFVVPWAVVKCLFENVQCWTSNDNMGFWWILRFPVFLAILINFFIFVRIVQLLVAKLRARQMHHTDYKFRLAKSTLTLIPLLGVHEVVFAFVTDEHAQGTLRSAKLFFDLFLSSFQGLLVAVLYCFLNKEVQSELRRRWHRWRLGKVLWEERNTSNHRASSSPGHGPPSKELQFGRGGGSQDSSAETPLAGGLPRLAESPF

[1] = biological target: T1, glucose-dependent insulinotropic …

Row | Binder | cAMP Mean pM GLP-1R (GLP-1 receptor (GLP-1R)) | cAMP Primary assay EC50 GLP-1R n1 (GLP-1 receptor (GLP-1R)) | cAMP Primary assay EC50 GLP-1R n2 (GLP-1 receptor (GLP-1R)) | cAMP Primary assay EC50 Gluc-R (glucagon receptor (GCGR)) | cAMP Primary assay EC50 Gluc-R (2nd) (glucagon receptor (GCGR)) | cAMP Primary assay EC50 GIP-R [1] | cAMP Primary assay EC50 GIP-R (2nd) [1]
1 | H[Aib]EGS[αMeF]K([γGlu-Palmitoyl])SDV[αMeS]S[αMeF]LEGEAA[αMeK]E[αMeF]IA[αMeF]VV[αMeK]GG-NH2 (N-terminus assumed; SMILES CCCCCCCCCCCCCCCC(=O)N[C@@H](CCC(=O)NCCCC[C@H](NC(=O)[C@](C)(Cc1ccccc1)NC(=O)[C@H](CO)NC(=O)CNC(=O)[C@H](CCC(=O)O)NC(=O)C(C)(C)NC(=O)[C@@H](N)Cc1c[nH]cn1)C(=O)N[C@@H](CO)C(=O)N[C@@H](CC(=O)O)C(=O)N[C@H](C(=O)N[C@@](C)(CO)C(=O)N[C@@H](CO)C(=O)N[C@@](C)(Cc1ccccc1)C(=O)N[C@@H](CC(C)C)C(=O)N[C@@H](CCC(=O)O)C(=O)NCC(=O)N[C@@H](CCC(=O)O)C(=O)N[C@@H](C)C(=O)N[C@@H](C)C(=O)N[C@@](C)(CCCCN)C(=O)N[C@@H](CCC(=O)O)C(=O)N[C@@](C)(Cc1ccccc1)C(=O)N[C@H](C(=O)N[C@@H](C)C(=O)N[C@@](C)(Cc1ccccc1)C(=O)N[C@H](C(=O)N[C@H](C(=O)N[C@@](C)(CCCCN)C(=O)NCC(=O)NCC(N)=O)C(C)C)C(C)C)[C@@H](C)CC)C(C)C)C(=O)O) [SEQ ID NO 93] | 27600 pM | 28 nM | 28 nM | 28 nM | 28 nM | 28 nM | 28 nM
2 | H[Aib]EGK([γGlu-Palmitoyl])[αMeF]TSDV[αMeS]S[αMeF]LEGEAA[αMeK]E[αMeF]IA[αMeF]VV[αMeK]GG-NH2 (N-terminus assumed; SMILES CCCCCCCCCCCCCCCC(=O)N[C@@H](CCC(=O)NCCCC[C@H](NC(=O)CNC(=O)[C@H](CCC(=O)O)NC(=O)C(C)(C)NC(=O)[C@@H](N)Cc1c[nH]cn1)C(=O)N[C@@](C)(Cc1ccccc1)C(=O)N[C@H](C(=O)N[C@@H](CO)C(=O)N[C@@H](CC(=O)O)C(=O)N[C@H](C(=O)N[C@@](C)(CO)C(=O)N[C@@H](CO)C(=O)N[C@@](C)(Cc1ccccc1)C(=O)N[C@@H](CC(C)C)C(=O)N[C@@H](CCC(=O)O)C(=O)NCC(=O)N[C@@H](CCC(=O)O)C(=O)N[C@@H](C)C(=O)N[C@@H](C)C(=O)N[C@@](C)(CCCCN)C(=O)N[C@@H](CCC(=O)O)C(=O)N[C@@](C)(Cc1ccccc1)C(=O)N[C@H](C(=O)N[C@@H](C)C(=O)N[C@@](C)(Cc1ccccc1)C(=O)N[C@H](C(=O)N[C@H](C(=O)N[C@@](C)(CCCCN)C(=O)NCC(=O)NCC(N)=O)C(C)C)C(C)C)[C@@H](C)CC)C(C)C)[C@@H](C)O)C(=O)O) [SEQ ID NO 95] | 224 pM | 0.26 nM | 0.19 nM | 28 nM | 28 nM | 28 nM | 28 nM
3 | H[Aib]EGS[αMeF]TK([γGlu-Palmitoyl])DV[αMeS]S[αMeF]LEGEAA[αMeK]E[αMeF]IA[αMeF]VV[αMeK]GG-NH2 (N-terminus assumed; SMILES CCCCCCCCCCCCCCCC(=O)N[C@@H](CCC(=O)NCCCC[C@H](NC(=O)[C@@H](NC(=O)[C@](C)(Cc1ccccc1)NC(=O)[C@H](CO)NC(=O)CNC(=O)[C@H](CCC(=O)O)NC(=O)C(C)(C)NC(=O)[C@@H](N)Cc1c[nH]cn1)[C@@H](C)O)C(=O)N[C@@H](CC(=O)O)C(=O)N[C@H](C(=O)N[C@@](C)(CO)C(=O)N[C@@H](CO)C(=O)N[C@@](C)(Cc1ccccc1)C(=O)N[C@@H](CC(C)C)C(=O)N[C@@H](CCC(=O)O)C(=O)NCC(=O)N[C@@H](CCC(=O)O)C(=O)N[C@@H](C)C(=O)N[C@@H](C)C(=O)N[C@@](C)(CCCCN)C(=O)N[C@@H](CCC(=O)O)C(=O)N[C@@](C)(Cc1ccccc1)C(=O)N[C@H](C(=O)N[C@@H](C)C(=O)N[C@@](C)(Cc1ccccc1)C(=O)N[C@H](C(=O)N[C@H](C(=O)N[C@@](C)(CCCCN)C(=O)NCC(=O)NCC(N)=O)C(C)C)C(C)C)[C@@H](C)CC)C(C)C)C(=O)O) [SEQ ID NO 92] | 423 pM | 0.45 nM | 0.39 nM | 28 nM | 28 nM | 28 nM | 28 nM
4 | H[Aib]EGS[αMeF]TSK([γGlu-Palmitoyl])V[αMeS]S[αMeF]LEGEAA[αMeK]E[αMeF]IA[αMeF]VV[αMeK]GG-NH2 (N-terminus assumed; SMILES CCCCCCCCCCCCCCCC(=O)N[C@@H](CCC(=O)NCCCC[C@H](NC(=O)[C@H](CO)NC(=O)[C@@H](NC(=O)[C@](C)(Cc1ccccc1)NC(=O)[C@H](CO)NC(=O)CNC(=O)[C@H](CCC(=O)O)NC(=O)C(C)(C)NC(=O)[C@@H](N)Cc1c[nH]cn1)[C@@H](C)O)C(=O)N[C@H](C(=O)N[C@@](C)(CO)C(=O)N[C@@H](CO)C(=O)N[C@@](C)(Cc1ccccc1)C(=O)N[C@@H](CC(C)C)C(=O)N[C@@H](CCC(=O)O)C(=O)NCC(=O)N[C@@H](CCC(=O)O)C(=O)N[C@@H](C)C(=O)N[C@@H](C)C(=O)N[C@@](C)(CCCCN)C(=O)N[C@@H](CCC(=O)O)C(=O)N[C@@](C)(Cc1ccccc1)C(=O)N[C@H](C(=O)N[C@@H](C)C(=O)N[C@@](C)(Cc1ccccc1)C(=O)N[C@H](C(=O)N[C@H](C(=O)N[C@@](C)(CCCCN)C(=O)NCC(=O)NCC(N)=O)C(C)C)C(C)C)[C@@H](C)CC)C(C)C)C(=O)O) [SEQ ID NO 91] | 24 pM | 0.021 nM | 0.027 nM | 28 nM | 28 nM | 28 nM | 28 nM
5 | H[Aib]EGSK([γGlu-Palmitoyl])TSDV[αMeS]S[αMeF]LEGEAA[αMeK]E[αMeF]IA[αMeF]VV[αMeK]GG-NH2 (N-terminus assumed; SMILES CCCCCCCCCCCCCCCC(=O)N[C@@H](CCC(=O)NCCCC[C@H](NC(=O)[C@H](CO)NC(=O)CNC(=O)[C@H](CCC(=O)O)NC(=O)C(C)(C)NC(=O)[C@@H](N)Cc1c[nH]cn1)C(=O)N[C@H](C(=O)N[C@@H](CO)C(=O)N[C@@H](CC(=O)O)C(=O)N[C@H](C(=O)N[C@@](C)(CO)C(=O)N[C@@H](CO)C(=O)N[C@@](C)(Cc1ccccc1)C(=O)N[C@@H](CC(C)C)C(=O)N[C@@H](CCC(=O)O)C(=O)NCC(=O)N[C@@H](CCC(=O)O)C(=O)N[C@@H](C)C(=O)N[C@@H](C)C(=O)N[C@@](C)(CCCCN)C(=O)N[C@@H](CCC(=O)O)C(=O)N[C@@](C)(Cc1ccccc1)C(=O)N[C@H](C(=O)N[C@@H](C)C(=O)N[C@@](C)(Cc1ccccc1)C(=O)N[C@H](C(=O)N[C@H](C(=O)N[C@@](C)(CCCCN)C(=O)NCC(=O)NCC(N)=O)C(C)C)C(C)C)[C@@H](C)CC)C(C)C)[C@@H](C)O)C(=O)O) [SEQ ID NO 94] | 228 pM | 0.14 nM | 0.32 nM | 28 nM | 28 nM | 28 nM | 28 nM
6 | H[Aib]EK([γGlu-Palmitoyl])S[αMeF]TSDV[αMeS]S[αMeF]LEGEAA[αMeK]E[αMeF]IA[αMeF]VV[αMeK]GG-NH2 (N-terminus assumed; SMILES CCCCCCCCCCCCCCCC(=O)N[C@@H](CCC(=O)NCCCC[C@H](NC(=O)[C@H](CCC(=O)O)NC(=O)C(C)(C)NC(=O)[C@@H](N)Cc1c[nH]cn1)C(=O)N[C@@H](CO)C(=O)N[C@@](C)(Cc1ccccc1)C(=O)N[C@H](C(=O)N[C@@H](CO)C(=O)N[C@@H](CC(=O)O)C(=O)N[C@H](C(=O)N[C@@](C)(CO)C(=O)N[C@@H](CO)C(=O)N[C@@](C)(Cc1ccccc1)C(=O)N[C@@H](CC(C)C)C(=O)N[C@@H](CCC(=O)O)C(=O)NCC(=O)N[C@@H](CCC(=O)O)C(=O)N[C@@H](C)C(=O)N[C@@H](C)C(=O)N[C@@](C)(CCCCN)C(=O)N[C@@H](CCC(=O)O)C(=O)N[C@@](C)(Cc1ccccc1)C(=O)N[C@H](C(=O)N[C@@H](C)C(=O)N[C@@](C)(Cc1ccccc1)C(=O)N[C@H](C(=O)N[C@H](C(=O)N[C@@](C)(CCCCN)C(=O)NCC(=O)NCC(N)=O)C(C)C)C(C)C)[C@@H](C)CC)C(C)C)[C@@H](C)O)C(=O)O) [SEQ ID NO 96] | 746 pM | 0.92 nM | 0.57 nM | 27 nM | 27 nM | 27 nM | 27 nM
